Measured values taken from US20110142842A1 (MEDINNOVA, published 2011).

molecular target: HLA-A*0201 (human, UniProt A*02:01); assay: REVEAL MHC binding assay (ProImmune)

First: GMDRYLIYV [Peptide ID 9 GMDRYLIYV (CD18)]
Second: RMPWYHSSL [Peptide ID 95 RMPWYHSSL (ZAP-70)]
The “% Pass/fail control” value of the first is higher: 170 % of pass/fail control for the first, 85.6 % of pass/fail control for the second.

Going from KMIMNSLSL [Peptide ID 96 KMIMNSLSL (CD20)] to TLWQLVEYL [Peptide ID 97 TLWQLVEYL (ZAP-70)], the “% Pass/fail control” value falls from 213 % of pass/fail control to 198 % of pass/fail control.

Going from KLKDLFTEL [Peptide ID 98 KLKDLFTEL (CD11a)] to GMVFSLLQV [Peptide ID 99 GMVFSLLQV (CD127)], the “% Pass/fail control” value rises from 171 % of pass/fail control to 175 % of pass/fail control.

Compared with VLWPRACWT [Peptide ID 100 VLWPRACWT (CD50)], NVAELLHQV [Peptide ID 101 NVAELLHQV (ZAP-70)] is higher in “% Pass/fail control” value: 139 % of pass/fail control for the first, 200 % of pass/fail control for the second.

First: WLSAAPTSL [Peptide ID 102 WLSAAPTSL (CD33)]
Second: ELSEDSSNV [Peptide ID 103 ELSEDSSNV (CD18)]
The “% Pass/fail control” value of the first is higher: 207 % of pass/fail control for the first, 139 % of pass/fail control for the second.

LMSFFILLL [Peptide ID 104 LMSFFILLL (CD53)] was tested, and the “% Pass/fail control” value was 161 % of pass/fail control.
